Reference: US10772972B2, “Anti-STEAP2 antibody drug conjugates, and compositions and uses thereof” (Regeneron Pharmaceuticals, Inc., priority 2016, dated 2020)
Changes are numbered by the printed parent chain.

B1: H1H11880P: anti-STEAP2 antibody, HCVR/LCVR SEQ ID NOs 34/42 (antibody, V domains shown)
VH: EVQLVESGGGLVQPGGSLRLSCAASGFTFSTYAMHWVRQAPGKGLQHVSTISTNGVNTYYADSVKGRFTISRDNSKSTLYLQMGSLRAEDMAVYYCARDKDFWSGYFDYWGQGTLVTVSS
VL: EIVMTQSPGTLSVSPGERATLSCRASQSVSSNLAWYHQKPGQAPRLLIYGASTRATGFPARFSGSGSGTEFTLTISSLQSEDFAAYYCQQYNNWPITFGQGTRLEIK
B2: BSSTEAP2/CD3-004: STEAP2×CD3 bispecific: anti-STEAP2 H1H7814N (SEQ 218), anti-CD3 H1H7251P (SEQ 1570), common LCVR SEQ 226 (antibody, V domains shown)
VH 1: QVQLVESGGGVVQPGRSLRLSCVASGFTISSYGMNWVRQAPGKGLEWVAVISYDGGNKYSVDSVKGRFTISRDNSKNTLYLQMNSLRAEDSAVYYCARGRYFDLWGRGTLVTVSS
VH 2: EVQLVESGGGLVQPGRSLRLSCAASGFTFADYTMHWVRQGPGTGLEWVSDIGWSGGSLGYADSVKGRFTISRDNAKNSLYLEMNNLRPEDTALYYCVKDKSGYGKFQYGLDVWGQGTTVTVSS
VL: DIQMTQSPSTLSASVGDRVTITCRASQSISSWLAWYQQKPGRAPNLLISKASSLKSGVPSRFSGSGSGTEFTLTVSSLQPDDFATYYCQQYYSYSYTFGQGTKLEIK
B3: H1H7814N: human-Fc anti-STEAP2 antibody, HCVR/LCVR SEQ ID NOs 218/226 (antibody, V domains shown)
VH: B2 VH 1
VL: B2 VL
modifications: human Fc
B4: BSSTEAP2/CD3-002: STEAP2×CD3 bispecific: anti-STEAP2 HCVR H2M11162N (SEQ 250), anti-CD3 HCVR CD3-VH-G5 (SEQ 1762), common LCVR SEQ 258 (antibody, V domains shown)
VH 1: QVQLQQSGPGLVKPSQTLSLTCAISGDSVSSNRAAWNWIRQSPSRGLQWLGRTYYRSKWYNDYAVSLRSRITINPVTSKNQVALHMNSVTPEDTAVYYCARAGIVVVPGPETFYYYDHGLDVWGQGTTVTVSS
VH 2: EVQLVESGGGLVQPGRSLRLSCAASGFTFDDYSMHWVRQAPGKGLEWVSGISWNSGSIGYADSVKGRFTISRDNAKNSLYLQMNSLRAEDTALYYCAKDGSGYGKFYYYGMDVWGQGTTVTVSS
VL: DIQMTQSPSSLSASVGDRVTITCRASQSIRSYLNWYQQKPGKAPELLIHAASSLQSGVPSRFSGSGSGTDFTLTISSLQPEDFASYYCQQSYSAPPITFGQGTRLEIK
B5: H2M11162N: anti-STEAP2 antibody, mouse IgG2 Fc, HCVR/LCVR SEQ ID NOs 250/258 (antibody, V domains shown)
VH: B4 VH 1
VL: B4 VL
modifications: mouse IgG2 Fc
B6: BSSTEAP2/CD3-007: STEAP2×CD3 bispecific: anti-STEAP2 H1H11162 (SEQ 250), anti-CD3 H1H7195P (SEQ 1450), common LCVR SEQ 258 (antibody, V domains shown)
VH 1: B4 VH 1
VH 2: EVQLVESGGGLVQPGRSLRLSCAASGFTFADYTMHWVRQAPGKGLEWVSDISWNSGSIAYADSVKGRFTISRDNAKNSLYLQMNSLRTEDTAFYYCAKDSRGYGHYKYLGLDVWGQGTTVTVSS
VL: B4 VL
B7: BSSTEAP2/CD3-003: STEAP2×CD3 bispecific: anti-STEAP2 HCVR H2M11162N (SEQ 250), anti-CD3 HCVR CD3-VH-G20 (SEQ 1866), common LCVR SEQ 258 (antibody, V domains shown)
VH 1: B4 VH 1
VH 2: B4 VH 2 with D99Y
VL: B4 VL
B8: H2M11164N: anti-STEAP2 antibody, mouse IgG2 Fc, HCVR/LCVR SEQ ID NOs 282/290 (antibody, V domains shown)
VH: B4 VH 1 with A23V, S31T, R33S, Q48E, L67V, M86L, F113Y, D117Y
VL: B4 VL with S28N, E45K, A50V, S85T, A94T, Q101H
modifications: mouse IgG2 Fc
B9: BSSTEAP2/CD3-006: STEAP2×CD3 bispecific: anti-STEAP2 H1H11162 (SEQ 250), anti-CD3 CD3-VH-P (SEQ 1882), common LCVR SEQ 258 (antibody, V domains shown)
VH 1: B4 VH 1
VH 2: B4 VH 2 with A23V, I58K, G59D, D99Y, Y108H, M111L
VL: B4 VL

Experiments:
[1] = system: C4-2 cells (high-STEAP2 expressing); test: Internalization and total binding on C4-2 cells (imaging, qualitative score); assay type: cell-based, human; set-up: key: − (no internalization or binding); +(weak internalization or binding); ++(moderate internalization or binding); +++(robust internalization or binding); settings: 10 μg/ml antibody
Method: Briefly, 20,000 C4-2 cells were seeded in PDL coated 96 well plates. The next day, cells were incubated with anti-human STEAP2 antibodies (10 μg/ml) for 30 min on ice followed by two PBS washes. Cells were then incubated with alexa488-conjugated anti-hFc Fab secondary antibody for 30 minutes on ice, followed by two additional PBS washes. Antibodies were allowed to internalize for 1 h at 37° C. in internalization buffer (PBS+2% FBS) or were maintained at 4° C. Cells were fixed in 4% formaldehyde, nuclei were stained with DRAQ5 (Cell signaling), and images were acquired on the ImageXpress micro XL (Molecular Devices).
A qualitative visual assessment of the total binding intensity and the intensity of antibodies that had internalized into vesicles was performed and scored according to the following criteria: − (no internalization or binding), +(weak internalization or binding), ++(moderate internalization or binding) and +++(robust internalization or binding).

monkey PBMCs = test: T cell proliferation assay, cynomolgus PBMC; assay type: cell-based; settings: for Cynomolgus PBMC proliferation activity (in words): across donors tested
Method: Thawed human or freshly isolated monkey PBMCs (50,000 cells/well) were incubated with 3-fold (human, concentration range: 5E-10M to 2.82E-15M; cynomolgus, concentration range: 1E-09M to 4.57E-13M) serial dilutions of STEAP2×CD3 bispecifics or isotype control in complete medium (RPMI supplemented with 10% FBS, 100 U/mL penicillin, 100 μg/mL streptomycin, 292 μg/mL L-glutamine) and a fixed concentration (human: 200 ng/mL, cyno: 500 ng/mL) of a commercial anti-CD28 antibody (Biolegend, Catalog #302914) in white flat bottom 96-well plates for 72 hours at 37° C. Isolated monkey PBMCs were from two donors (identified as mk8781M or mk9381M). Following incubation, CellTiter Glo® (Promega, Cat #7573) was added and luminescence, as readout for cell viability, was measured using a VICTOR X5 multi-label plate reader. Cell titer was calculated by dividing the luminescence of stimulated cells by the baseline luminescence of unstimulated cells.

cynomolgus T cells = test: FACS binding titration of STEAP2xCD3 bispecifics on cynomolgus T cells; settings: 66.6 nM to 0.001 nM, 30 minutes at 4° C.
Method: FACS Binding Titration on Jurkat Cells, PC3_STEAP2/1 Cells and cynomolgus T Cells: Flow cytometric analysis was utilized to determine binding of STEAP2×CD3 bispecific antibodies to Jurkat, PC3_STEAP2/1 chimeric and cynomolgus T cells, followed by detection with a phycoerythrin (PE)-labeled anti-human IgG antibody. Briefly, 2×10^5 cells/well were incubated for 30 minutes at 4° C. with a serial dilution of STEAP2×CD3 bispecific antibodies or control antibody (a human IgG1 antibody that binds a feline antigen with no cross-reactivity to STEAP2 or human or cynomolgus CD3) ranging from 66.6 nM to 0.001 nM. After incubation, the cells were washed twice with cold PBS containing 1% filtered FBS and a PE-conjugated anti-human secondary antibody was added to the cells and incubated for an additional 30 minutes. Wells containing no antibody or secondary antibody only were used as a control. After incubation, cells were washed, re-suspended in 200 μL cold PBS containing 1% filtered FBS and analyzed by flow cytometry on a BD FACS Canto II.

[2] = system: human prostate cancer C4-2 cells (xenograft); test: C4-2/human PBMC co-implant xenograft in NSG mice, immediate dosing; assay type: in vivo, mouse; settings: C4-2/NSG; for Tumor growth compared to isotype control at study endpoint (in words): 0.1 or 0.01 mg/kg
From the text: To assess the in vivo efficacy of the anti-STEAP2/anti-CD3 bispecifics in human tumor xenograft studies, NOD scid gamma (NSG) mice (Jackson Laboratories, Bar Harbor, Me.) were co-implanted with human peripheral blood mononuclear cells (PBMCs; ReachBio LLC., Seattle, Wash.) along with human prostate cancer C4-2 cells (MD Anderson Cancer Center, Houston Tex.) which endogenously express STEAP2.
Briefly, 5.0×10^6 C4-2 cells were co-implanted subcutaneously (s.c.) with 1.25×10^6 human PBMCs in a 50:50 mix of matrigel matrix (BD Biosciences, San Jose, Calif.) into the right flank of male NSG mice. Mice were treated intraperitoneally (i.p.) on the day of implantation (immediate treatment model) with anti-STEAP2/anti-CD3 bispecifics BSSTEAP2/CD3-001, BSSTEAP2/CD3-002 or BSSTEAP2/CD3-003, or an isotype control, at a dose of 0.1 or 0.01 mg/kg (N=5 mice/group).
Tumor size was measured 2×/week using calipers and tumor volume calculated as Volume=(length×width^2)/2. Data is shown as tumor size (mm^3) at study endpoint, 46 d post-tumor implantation (Table 7).

[3] = 0.01 mg/kg i.p. on day of implantation
[4] = 0.1 mg/kg i.p. on day of implantation

EC50 (cynomolgus T cells) [nM]	Molecule	Internalization (37° C., 1 h) Qualitative Score [1]	Total Binding (4° C.) Qualitative Score [1]	Cynomolgus PBMC proliferation activity (in words) (monkey PBMCs)	also measured
–	B1	+	+	–	–
1.99	B2	–	–	donor dependent	–
–	B3	+	+	–	–
–	B4	–	–	–	Tumor Size (mm^3) 46 d post-tumor implantation (mean ± SD) [2, 3]: 17.0 ± 8.0 mm^3; Tumor Size (mm^3) 46 d post-tumor implantation (mean ± SD) [2, 4]: 15.0 ± 12.0 mm^3; Tumor growth compared to isotype control at study endpoint (in words) [2]: significantly suppressed tumor growth
–	B5	+++	+++	–	–
17.3	B6	–	–	donor dependent	–
–	B7	–	–	–	Tumor Size (mm^3) 46 d post-tumor implantation (mean ± SD) [2, 3]: 25.0 ± 21.0 mm^3; Tumor Size (mm^3) 46 d post-tumor implantation (mean ± SD) [2, 4]: 19.0 ± 12.0 mm^3; Tumor growth compared to isotype control at study endpoint (in words) [2]: significantly suppressed tumor growth
–	B8	+++	+++	–	–
7.99	B9	–	–	induced robust cynomolgus PBMC proliferation in all donors tested	EC50 (monkey PBMCs; donor mk9381M, anti-CD28 500 ng/mL, 72 hours, read-out: Cyno PBMC Proliferation [M] (donor)): 1.53e-11 M
